Laboratory results published in patent publication US20200024331A1 (published 2020).

B1: CA6 (VHH)
VHH: EVQLQASGGGLVRPGGSLRLSCAASGSFFTIDTMAWYRQAPGRRRELVARQSSGRSPDYDDSVVGRFTISRDIAKSSVYLQMDSLQPEDTALYYCYQSIRPWPGSSYEAHWGQGIQVIVSS
B2: CC3 (VHH)
VHH: EVQLQASGGGSVQAGGSLRLSCVTSQNLFEYYTMGWYRQVPGSQRERVALINNGGSTVAGSVEGRFTISRDHAKNSVYLQMNYLKPEDSAVYYCRAFGPADYWGQGTQVTVSS

How the values were obtained:
[1] = target: Chikungunya virus E1 protein (Chikungunya virus, UniProt Q8JUX5 810-1224); test: SPR
[2] = target: Chikungunya virus-like particles (CHIKV VLP) (Chikungunya virus, UniProt Q8JUX5 810-1248; Q8JUX5 326-748); test: SPR
Chain of Chikungunya virus-like particles (CHIKV VLP) (Q8JUX5 810-1248, chain 1 of 2): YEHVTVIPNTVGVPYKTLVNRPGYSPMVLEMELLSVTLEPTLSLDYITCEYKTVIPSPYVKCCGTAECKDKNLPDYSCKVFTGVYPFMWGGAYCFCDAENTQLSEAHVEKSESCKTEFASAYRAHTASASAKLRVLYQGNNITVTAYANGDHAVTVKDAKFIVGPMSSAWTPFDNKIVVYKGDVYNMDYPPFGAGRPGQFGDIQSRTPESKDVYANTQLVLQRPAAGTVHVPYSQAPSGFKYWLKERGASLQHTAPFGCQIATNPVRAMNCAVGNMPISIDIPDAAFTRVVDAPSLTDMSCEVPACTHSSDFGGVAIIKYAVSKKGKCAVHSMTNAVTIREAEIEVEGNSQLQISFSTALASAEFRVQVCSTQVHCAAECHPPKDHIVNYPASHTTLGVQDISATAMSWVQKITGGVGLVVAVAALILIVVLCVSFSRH
Chain of Chikungunya virus-like particles (CHIKV VLP) (Q8JUX5 326-748, chain 2 of 2): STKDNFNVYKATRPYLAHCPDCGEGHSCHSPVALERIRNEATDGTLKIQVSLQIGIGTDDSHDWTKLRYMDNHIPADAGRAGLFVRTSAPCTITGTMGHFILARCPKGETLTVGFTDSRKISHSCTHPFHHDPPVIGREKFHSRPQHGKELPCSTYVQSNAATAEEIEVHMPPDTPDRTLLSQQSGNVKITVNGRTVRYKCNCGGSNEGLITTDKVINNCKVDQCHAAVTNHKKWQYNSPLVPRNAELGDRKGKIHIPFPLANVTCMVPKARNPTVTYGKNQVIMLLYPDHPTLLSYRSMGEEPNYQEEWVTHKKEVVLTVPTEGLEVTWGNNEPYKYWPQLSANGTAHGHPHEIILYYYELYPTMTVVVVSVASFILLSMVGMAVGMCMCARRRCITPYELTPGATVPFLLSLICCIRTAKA

Chain of Chikungunya virus E1 protein (Q8JUX5 810-1224): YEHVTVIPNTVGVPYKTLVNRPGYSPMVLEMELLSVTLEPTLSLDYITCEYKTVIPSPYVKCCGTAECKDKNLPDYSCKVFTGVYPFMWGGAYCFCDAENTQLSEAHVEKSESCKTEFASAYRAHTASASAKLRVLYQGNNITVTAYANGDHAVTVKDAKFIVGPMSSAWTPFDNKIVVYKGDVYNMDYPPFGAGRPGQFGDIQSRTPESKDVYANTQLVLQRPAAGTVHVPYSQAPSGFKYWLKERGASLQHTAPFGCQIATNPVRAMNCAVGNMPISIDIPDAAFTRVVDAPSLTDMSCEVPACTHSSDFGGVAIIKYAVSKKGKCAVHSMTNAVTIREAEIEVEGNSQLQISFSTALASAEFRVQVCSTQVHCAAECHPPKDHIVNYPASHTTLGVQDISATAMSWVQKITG

| Binder | Kd [1] | Kd [2] |
| --- | --- | --- |
| B1 | 0.132 nM |  |
| B2 | 3.04 nM | 1.2 nM |
